This note sets out measurements from article PMC5234079, “Structural basis of human PCNA sliding on DNA”.

Series [1] deals with Human PCNA (proliferating cell nuclear antigen) (human). Put plainly: crystal structure; co-crystal of PCNA with a 10 bp dsDNA, hanging drop, 20 °C, 11% PEG 3350, 0.1 M sodium acetate pH 4.5; space group H3, 2.8 Å.
Another series concerns the target PCNA (human, UniProt P12004 1-261). Put plainly: NMR; 1H-15N TROSY titration, T73 CSP, single-site model; text gives ~0.7 mM; NMR: 100 uM PCNA, 20 mM sodium phosphate, 50 mM NaCl, pH 7.0, 20 uM DSS, 0.01% NaN3, 5% 2H2O, 35 C. To be noted: protein: recombinant; tags: N-terminal His6 and PreScission site, cleaved; residual GPH- at N terminus; chain copies: 3; blunt.

Chain of PCNA (P12004 whole entry): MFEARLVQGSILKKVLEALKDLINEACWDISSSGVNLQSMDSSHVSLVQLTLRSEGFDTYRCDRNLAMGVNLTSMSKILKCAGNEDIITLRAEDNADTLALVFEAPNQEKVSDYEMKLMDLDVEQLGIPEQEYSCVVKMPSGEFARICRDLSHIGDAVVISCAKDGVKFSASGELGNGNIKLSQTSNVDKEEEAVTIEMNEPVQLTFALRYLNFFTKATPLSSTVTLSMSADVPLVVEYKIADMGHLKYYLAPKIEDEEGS

In series [1], “Human PCNA (proliferating cell nuclear antigen) (natural protein)” registered a stoichiometry N of 3.

B1: 10 bp dsDNA (dsDNA)
DNA 1: ATACGATGGG
DNA 2: CCCATCGTAT
Take B1: the Kd with PCNA was 700 ± 100 µM.
